Reference: paper PMC11730744

Experiments:
Orai1β-eGFP [1] = biological target: Orai1β-eGFP (UniProt Q96D31); test: FRET or BRET; confocal FRET in living WT HEK293 cells co-expressing Orai1 variant-eGFP and STIM-mCherry (CMV promoter); resting (control) cells, medium with 1.8 mM Ca2+; whole cell averages
Orai1β-eGFP [2] = biological target: Orai1β-eGFP (UniProt Q96D31); test: FRET or BRET; confocal FRET in living WT HEK293 cells co-expressing Orai1 variant-eGFP and STIM-mCherry (CMV promoter); stimulated with 2 µM thapsigargin for 1 min, 1.8 mM extracellular Ca2+; whole cell averages

Chain of UniProt Q96D31 (Q96D31 whole entry): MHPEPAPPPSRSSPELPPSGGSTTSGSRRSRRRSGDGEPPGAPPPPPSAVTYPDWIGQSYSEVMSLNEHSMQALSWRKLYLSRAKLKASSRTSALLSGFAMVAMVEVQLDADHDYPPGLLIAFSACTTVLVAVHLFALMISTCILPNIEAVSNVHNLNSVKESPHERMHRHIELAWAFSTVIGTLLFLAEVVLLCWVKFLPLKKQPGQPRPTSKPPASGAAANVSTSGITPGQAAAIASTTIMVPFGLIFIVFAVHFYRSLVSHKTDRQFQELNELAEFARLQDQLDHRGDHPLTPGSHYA

- mean nFRET (resting cells) (Orai1β-eGFP [1]): 0.074
- mean nFRET (2 µM TG, 1 min) (Orai1β-eGFP [2]): 0.114
Substance: STIM2-mCherry (from UniProt Q9P246 15-746) (natural protein)
